Measured values from US20080095767A1 (PEPTECH, published 2008).

T1: rat MOG (myelin-oligodendrocyte glycoprotein) (rat, UniProt Q63345 28-245)
T1 construct: mature; Endogenous protein in cleared rat spinal cord lysate, run on SDS-PAGE and blotted; It was identified only by its size
T1 sequence (looked up): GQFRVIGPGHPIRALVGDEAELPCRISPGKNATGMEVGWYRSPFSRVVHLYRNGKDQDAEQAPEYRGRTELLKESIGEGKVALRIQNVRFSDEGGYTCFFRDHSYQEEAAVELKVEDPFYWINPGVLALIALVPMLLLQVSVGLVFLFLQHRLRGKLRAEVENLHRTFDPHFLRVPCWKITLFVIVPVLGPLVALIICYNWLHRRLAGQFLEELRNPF


What was measured:
[1] = target: T2, human TNF-α (Peprotech Cat No: 300-01A) (human, UniProt P01375 77-233); assay: cell-based or functional assay
[2] = target: T2, human TNF-α (Peprotech Cat No: 300-01A); assay: ELISA, TNF-α coated on the plate
Procedure: TNF-α (Peprotech Cat No: 300-01A) was diluted to 1 μg/mL in carbonate coating buffer ([…] pH 9.6). 100 μl of this solution was added to each well of a 96 well plate and incubated at 4° C. overnight in a humidified container. The plate was then washed three times with wash buffer (0.01M PBS pH 7.2, 0.05% Tween-20) and then three times with 0.01M PBS pH 7.2. The wells were then blocked by adding 200 μL blocking buffer (1% w/v BSA in 0.01M PBS pH 7.2) to each well and incubating the plate at 25° C., in a humidified container, for 1 hour. The antibody was diluted in antibody diluent (1% w/v BSA, 0.05% Tween-20 in 0.01M PBS pH 7.2) sufficient to generate a titration curve covering the ranges 6.00 μg/mL to 0.0578 ng/mL. The wells were incubated with the antibody for 1 hour at 25° C. The plate was then washed as previously described. 100 μL of Anti-IgG H+L antibody HRP conjugate (Zymed, Cat No: 81-71200) at 1:2000 in antibody diluent was used to detect bound AB197 and AB103. 100 μL of Anti-murine immunoglobulin antibody HRP conjugate (Dako, Cat No: P0260) at 1:2000 in antibody diluent was used to detect bound AB164. Wells with antibody diluent only were used to measure the background absorbance. After incubation at 25° C., in a humidified container, for 1 hour the plate was washed again as previously described. 100 μL TMB substrate solution (Zymed, Cat No: 00-2023) was added to each well and the colour allowed to develop for 4 min. 100 μL of 1M HCl was added to terminate the colour development reaction and absorbance was determined at 450 nm (ref. 620 nm)

[3] = target: T1, rat MOG (myelin-oligodendrocyte …); assay: Western blot on rat spinal cord lysate
Procedure: The ability of AB138 to retain binding to the antigen of M26, rat MOG (myelin-oligodendrocyte glycoprotein), was investigated by Western Blot. 130 mg of rat spinal cord (IMVS, Australia) was homogenized in 1.8 ml CelLytic M Cell Lysis Reagent (SIGMA, C2978) and incubated for 30 minutes at 4° C. Further homogenization was performed by drawing the lysate through a 27 g ½ needle several times followed by centrifugation at 4° C. and 13000 g for 30 minutes. The pellet and supernatant was diluted into SDS-PAGE sample buffer (125 mM Tris-HCl pH 6.8, 5% SDS, 0.25% bromophenol blue, 25% glycerol). Along with this 200 μl CHOK1SV cells at 1×10⁶ viable cells per ml were spun down at 13000×g at 4° C. for 1 minute and resuspended in 200 μl CelLytic M Cell Lysis Reagent (SIGMA). Following centrifugation at 4° C. and 13000×g for 30 minutes the supernatant was mixed with the appropriate amount of SDS-PAGE sample buffer. All samples, along with a sample of molecular weight markers, were run on a 4-20% Novex pre-cast gel (Invitrogen, Australia) for 2 hours at 120V. Proteins were then transferred to PVDF (BioRad, Australia) using a western blot apparatus in 1×Tris-Glycine Buffer with 20% methanol (BioRad, Cat 161+-0771) at 4° C. at 250 mA for 2 hours. […] Following washing, bound antibody was detected using the ECL Western Blotting Analysis System, (Amersham Biosciences Cat: RPN2109). […]

T2 sequence (P01375 77-233 limits assumed): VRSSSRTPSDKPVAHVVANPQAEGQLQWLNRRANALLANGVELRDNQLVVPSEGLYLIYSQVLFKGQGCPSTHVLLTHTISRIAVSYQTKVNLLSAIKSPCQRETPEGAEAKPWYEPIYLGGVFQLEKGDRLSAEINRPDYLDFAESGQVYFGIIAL

EC50 [2] [µg/mL]	binding result [3]	Binder	EC-50 (µg/ml), neutralisation of TNF-α-induced L-929 cell cytotoxicity [1] [µg/mL]
0.45	–	murine monoclonal antibody AB164 (antibody, V domains shown, Fully murine antibody from a hybridoma) VH: QVQLQQSGAELVRPGTSVKVSCKASGYAFTNYLIEWVKQRPGQGLEWIGVINPGSGSTNYNEKFKDKATLTADKSSSTAYMQLSSLTSDDSAVYFCVRDYGYDGMDYWGQGTSVTVS VL: DIVLTQSPASLAVSLGQRATISCRASKSVSTSGYSYMHWYQQKPGQPPKLLIYLASNLESGVPARFSGSGSGTDFTLNIHPVEEEDAATYYCQHSRELPLTFGAGTKLELKR	0.1
0.68	–	engineered monoclonal antibody AB197 (antibody, V domains shown) VH: QVQLVQSGAELKKPGASVKVSCKASGYAFTNYLIEWVRQPPGQGLEWIGVINPGSGSTNYNEKFKDKATLTADKSSSTAYMELSSLRPEDTAVYYCARDYGYDGMDYWGQGTLVTVS VL: ELVMTQSPATLSLSPGERATVSCRASKSVSTSGYSYMHWYQQKPGQAPRLLIYLASNLESGVPARFSGSRSGTDFTLTISSLEPEDFAVYYCQHSRELPLTFGQGTKLEIKR	0.41

The next lines start with the binder.

Binder	EC50 [2] [µg/mL]	binding result [3]	EC-50 (µg/ml), neutralisation of TNF-α-induced L-929 cell cytotoxicity [1] [µg/mL]
AB103 (anti-TNFα murine variable region-human constant region chimera) (antibody, V domains shown) VH: QVQLQQSGAELVRPGTSVKVSCKASGYAFTNYLIEWVKQRPGQGLEWIGVINPGSGSTNYNEKFKDKATLTADKSSSTAYMQLSSLTSDDSAVYFCVRDYGYDGMDYWGQGTSVTVSS VL: DIVLTQSPASLAVSLGQRATISCRASKSVSTSGYSYMHWYQQKPGQPPKLLIYLASNLESGVPARFSGSGSGTDFTLNIHPVEEEDAATYYCQHSRELPLTFGAGTKLELKR	0.19	–	0.1
AB138 (MOG specific marmoset derived variable region-human constant region chimera) (antibody, human IgG1, kappa, V domains shown, Chimeric antibody with the variable regions of the marmoset anti-MOG antibody (M26) and human IgG1/kappa constant regions) VH: QVQLVQSGAEVKKPGASVKVSCKASGYTFTSYAISWARQPPGQGLEWMGAFDPEYGSTTYAQKFQGRVTMTADTSTSTAYMELSSLRPEDTAVYYCARDVNFGNYFDYWGQGTLVTVSS VL: ELVMTQSPATLSLSPGERATVSCRAGQSVSYYLAWYQQKPGQAPRLLIYGASTRATGIPARFSGSRSGTDFTLTISSLEPEDFAVYYCQQYSSWPPTFGQGTKLEIKR	–	binds	–
